Data from the supplement of paper PMC9112550, “Optimization of the antimicrobial peptide Bac7 by deep mutational scanning” (BMC Biology, 2022).

Tested on: Escherichia coli TOP10
Assay: shrunken log2 fold change of peptide-encoding DNA abundance (4.5 h post-induction vs induction); higher = less antimicrobial activity (less host growth inhibition)
Conditions: time post-induction: 4.5 h; library: site-saturation at positions 5, 18, 19, 20
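Further: peptides expressed intracellularly from a pBAD plasmid library in pooled LB shake-flask culture, induced with 0.3% L-arabinose, DNA abundance read by NGS, three biological replicates, DESeq2 with apeglm shrinkage.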

## RRIRLRPPRLPRPRPRPSHMPRP
  shrunken log2 fold change: -0.228

## RRIRLRPPRLPRPRPRPSHWPRP
  shrunken log2 fold change: -0.0446

## RRIRLRPPRLPRPRPRPSIDPRP
  shrunken log2 fold change: -0.191

## RRIRLRPPRLPRPRPRPSKRPRP
  shrunken log2 fold change: -0.646

## RRIRLRPPRLPRPRPRPSLEPRP
  shrunken log2 fold change: -0.209

## RRIRLRPPRLPRPRPRPSMGPRP
  shrunken log2 fold change: 0.0483

## RRIRLRPPRLPRPRPRPSMMPRP
  shrunken log2 fold change: -0.358

## RRIRLRPPRLPRPRPRPSPTPRP
  shrunken log2 fold change: 1.06

## RRIRLRPPRLPRPRPRPSQMPRP
  shrunken log2 fold change: -0.261

## RRIRLRPPRLPRPRPRPSRLPRP
  shrunken log2 fold change: -0.0544

## RRIRLRPPRLPRPRPRPSSIPRP
  shrunken log2 fold change: -0.245

## RRIRLRPPRLPRPRPRPSSPPRP
  shrunken log2 fold change: -0.115

## RRIRLRPPRLPRPRPRPSTPPRP
  shrunken log2 fold change: -0.207

## RRIRLRPPRLPRPRPRPSTVPRP
  shrunken log2 fold change: -0.938

## RRIRLRPPRLPRPRPRPSWGPRP
  shrunken log2 fold change: 0.00407

## RRIRLRPPRLPRPRPRPSWVPRP
  shrunken log2 fold change: -0.141

## RRIRLRPPRLPRPRPRPSYGPRP
  shrunken log2 fold change: -0.585

## RRIRLRPPRLPRPRPRPTALPRP
  shrunken log2 fold change: -0.134

## RRIRLRPPRLPRPRPRPTATPRP
  shrunken log2 fold change: 0.817

## RRIRLRPPRLPRPRPRPTCAPRP
  shrunken log2 fold change: 0.314

## RRIRLRPPRLPRPRPRPTCDPRP
  shrunken log2 fold change: -0.202

## RRIRLRPPRLPRPRPRPTDMPRP
  shrunken log2 fold change: -0.633

## RRIRLRPPRLPRPRPRPTDWPRP
  shrunken log2 fold change: 0.947

## RRIRLRPPRLPRPRPRPTEHPRP
  shrunken log2 fold change: 0.121

## RRIRLRPPRLPRPRPRPTFWPRP
  shrunken log2 fold change: 0.303

## RRIRLRPPRLPRPRPRPTGSPRP
  shrunken log2 fold change: -0.0138

## RRIRLRPPRLPRPRPRPTHDPRP
  shrunken log2 fold change: 0.324

## RRIRLRPPRLPRPRPRPTKQPRP
  shrunken log2 fold change: 0.103

## RRIRLRPPRLPRPRPRPTLLPRP
  shrunken log2 fold change: 0.0589

## RRIRLRPPRLPRPRPRPTMCPRP
  shrunken log2 fold change: -0.0109

## RRIRLRPPRLPRPRPRPTNFPRP
  shrunken log2 fold change: -0.0757

## RRIRLRPPRLPRPRPRPTPDPRP
  shrunken log2 fold change: 0.626

## RRIRLRPPRLPRPRPRPTQRPRP
  shrunken log2 fold change: 0.248

## RRIRLRPPRLPRPRPRPTRCPRP
  shrunken log2 fold change: -0.119

## RRIRLRPPRLPRPRPRPTTMPRP
  shrunken log2 fold change: -0.439

## RRIRLRPPRLPRPRPRPTVIPRP
  shrunken log2 fold change: -0.059

## RRIRLRPPRLPRPRPRPTVKPRP
  shrunken log2 fold change: -0.0583

## RRIRLRPPRLPRPRPRPTWPPRP
  shrunken log2 fold change: 0.705

## RRIRLRPPRLPRPRPRPTWTPRP
  shrunken log2 fold change: -0.0607

## RRIRLRPPRLPRPRPRPTYDPRP
  shrunken log2 fold change: 0.0466

## RRIRLRPPRLPRPRPRPVADPRP
  shrunken log2 fold change: 0.0131

## RRIRLRPPRLPRPRPRPVAEPRP
  shrunken log2 fold change: 0.396

## RRIRLRPPRLPRPRPRPVCAPRP
  shrunken log2 fold change: 0.174

## RRIRLRPPRLPRPRPRPVCFPRP
  shrunken log2 fold change: -0.059

## RRIRLRPPRLPRPRPRPVCLPRP
  shrunken log2 fold change: -0.0821

## RRIRLRPPRLPRPRPRPVCMPRP
  shrunken log2 fold change: -0.246

## RRIRLRPPRLPRPRPRPVEDPRP
  shrunken log2 fold change: 0.0985

## RRIRLRPPRLPRPRPRPVFAPRP
  shrunken log2 fold change: 0.223

## RRIRLRPPRLPRPRPRPVFGPRP
  shrunken log2 fold change: 0.0724

## RRIRLRPPRLPRPRPRPVFHPRP
  shrunken log2 fold change: -0.143

## RRIRLRPPRLPRPRPRPVFLPRP
  shrunken log2 fold change: -0.207

## RRIRLRPPRLPRPRPRPVHGPRP
  shrunken log2 fold change: 0.0748

## RRIRLRPPRLPRPRPRPVKMPRP
  shrunken log2 fold change: -0.327

## RRIRLRPPRLPRPRPRPVKQPRP
  shrunken log2 fold change: -0.0196

## RRIRLRPPRLPRPRPRPVKRPRP
  shrunken log2 fold change: 0.0647

## RRIRLRPPRLPRPRPRPVLAPRP
  shrunken log2 fold change: 0.104

## RRIRLRPPRLPRPRPRPVMHPRP
  shrunken log2 fold change: -0.16

## RRIRLRPPRLPRPRPRPVPRPRP
  shrunken log2 fold change: 0.352

## RRIRLRPPRLPRPRPRPVQVPRP
  shrunken log2 fold change: -0.113

## RRIRLRPPRLPRPRPRPVRSPRP
  shrunken log2 fold change: 0.53

## RRIRLRPPRLPRPRPRPVSGPRP
  shrunken log2 fold change: 0.525

## RRIRLRPPRLPRPRPRPVSSPRP
  shrunken log2 fold change: 0.242

## RRIRLRPPRLPRPRPRPVTPPRP
  shrunken log2 fold change: -0.0834

## RRIRLRPPRLPRPRPRPVTSPRP
  shrunken log2 fold change: -0.0743

## RRIRLRPPRLPRPRPRPVVCPRP
  shrunken log2 fold change: -0.0501

## RRIRLRPPRLPRPRPRPVVYPRP
  shrunken log2 fold change: -0.058

## RRIRLRPPRLPRPRPRPVWYPRP
  shrunken log2 fold change: -0.277

## RRIRLRPPRLPRPRPRPVYDPRP
  shrunken log2 fold change: -0.0147

## RRIRLRPPRLPRPRPRPVYGPRP
  shrunken log2 fold change: -0.183

## RRIRLRPPRLPRPRPRPWAAPRP
  shrunken log2 fold change: 0.15

## RRIRLRPPRLPRPRPRPWCIPRP
  shrunken log2 fold change: 0.0272

## RRIRLRPPRLPRPRPRPWCPPRP
  shrunken log2 fold change: 0.0721

## RRIRLRPPRLPRPRPRPWCYPRP
  shrunken log2 fold change: -0.489

## RRIRLRPPRLPRPRPRPWEDPRP
  shrunken log2 fold change: 0.0824

## RRIRLRPPRLPRPRPRPWEEPRP
  shrunken log2 fold change: -0.0678

## RRIRLRPPRLPRPRPRPWEQPRP
  shrunken log2 fold change: -0.206

## RRIRLRPPRLPRPRPRPWFVPRP
  shrunken log2 fold change: -0.399

## RRIRLRPPRLPRPRPRPWGDPRP
  shrunken log2 fold change: -0.176

## RRIRLRPPRLPRPRPRPWGPPRP
  shrunken log2 fold change: -0.24

## RRIRLRPPRLPRPRPRPWGVPRP
  shrunken log2 fold change: 0.0612

## RRIRLRPPRLPRPRPRPWHKPRP
  shrunken log2 fold change: -0.0761

## RRIRLRPPRLPRPRPRPWKKPRP
  shrunken log2 fold change: -0.279

## RRIRLRPPRLPRPRPRPWKYPRP
  shrunken log2 fold change: -0.0875

## RRIRLRPPRLPRPRPRPWNSPRP
  shrunken log2 fold change: -0.018

## RRIRLRPPRLPRPRPRPWQNPRP
  shrunken log2 fold change: -0.195

## RRIRLRPPRLPRPRPRPWQQPRP
  shrunken log2 fold change: 0.00911

## RRIRLRPPRLPRPRPRPWRCPRP
  shrunken log2 fold change: 0.336

## RRIRLRPPRLPRPRPRPWRMPRP
  shrunken log2 fold change: 0.0332

## RRIRLRPPRLPRPRPRPWRNPRP
  shrunken log2 fold change: 0.00408

## RRIRLRPPRLPRPRPRPWRTPRP
  shrunken log2 fold change: 0.0595

## RRIRLRPPRLPRPRPRPWSWPRP
  shrunken log2 fold change: 0.0711

## RRIRLRPPRLPRPRPRPWWSPRP
  shrunken log2 fold change: -0.0019

## RRIRLRPPRLPRPRPRPYACPRP
  shrunken log2 fold change: -0.0291

## RRIRLRPPRLPRPRPRPYAGPRP
  shrunken log2 fold change: 0.0235

## RRIRLRPPRLPRPRPRPYATPRP
  shrunken log2 fold change: -0.246

## RRIRLRPPRLPRPRPRPYDKPRP
  shrunken log2 fold change: -0.951

## RRIRLRPPRLPRPRPRPYDLPRP
  shrunken log2 fold change: -0.0724

## RRIRLRPPRLPRPRPRPYDWPRP
  shrunken log2 fold change: -0.218

## RRIRLRPPRLPRPRPRPYFAPRP
  shrunken log2 fold change: -0.233

## RRIRLRPPRLPRPRPRPYIDPRP
  shrunken log2 fold change: -0.00113

## RRIRLRPPRLPRPRPRPYKQPRP
  shrunken log2 fold change: -0.0145

## RRIRLRPPRLPRPRPRPYLIPRP
  shrunken log2 fold change: -0.274

## RRIRLRPPRLPRPRPRPYMHPRP
  shrunken log2 fold change: -0.408

## RRIRLRPPRLPRPRPRPYNDPRP
  shrunken log2 fold change: -0.0858

## RRIRLRPPRLPRPRPRPYNEPRP
  shrunken log2 fold change: -0.78

## RRIRLRPPRLPRPRPRPYNRPRP
  shrunken log2 fold change: -0.113

## RRIRLRPPRLPRPRPRPYPKPRP
  shrunken log2 fold change: -0.0574

## RRIRLRPPRLPRPRPRPYRHPRP
  shrunken log2 fold change: -0.628

## RRIRLRPPRLPRPRPRPYSHPRP
  shrunken log2 fold change: -0.444

## RRIRLRPPRLPRPRPRPYSMPRP
  shrunken log2 fold change: -0.924

## RRIRLRPPRLPRPRPRPYTCPRP
  shrunken log2 fold change: -0.223

## RRIRLRPPRLPRPRPRPYTHPRP
  shrunken log2 fold change: -0.925

## RRIRLRPPRLPRPRPRPYTSPRP
  shrunken log2 fold change: -0.33

## RRIRLRPPRLPRPRPRPYTVPRP
  shrunken log2 fold change: -0.121

## RRIRLRPPRLPRPRPRPYVNPRP
  shrunken log2 fold change: -0.23

## RRIRLRPPRLPRPRPRPYWAPRP
  shrunken log2 fold change: 0.216

## RRIRLRPPRLPRPRPRPYWMPRP
  shrunken log2 fold change: -0.257

## RRIRLRPPRLPRPRPRPYWYPRP
  shrunken log2 fold change: -0.542

## RRIRMRPPRLPRPRPRPAAQPRP
  shrunken log2 fold change: 1.12

## RRIRMRPPRLPRPRPRPACFPRP
  shrunken log2 fold change: 0.421

## RRIRMRPPRLPRPRPRPADAPRP
  shrunken log2 fold change: 1.21

## RRIRMRPPRLPRPRPRPADMPRP
  shrunken log2 fold change: 0.728

## RRIRMRPPRLPRPRPRPADSPRP
  shrunken log2 fold change: 0.264

## RRIRMRPPRLPRPRPRPAEAPRP
  shrunken log2 fold change: 0.917

## RRIRMRPPRLPRPRPRPAESPRP
  shrunken log2 fold change: 0.419

## RRIRMRPPRLPRPRPRPAFIPRP
  shrunken log2 fold change: -0.398

## RRIRMRPPRLPRPRPRPAGPPRP
  shrunken log2 fold change: 0.484

## RRIRMRPPRLPRPRPRPAGRPRP
  shrunken log2 fold change: 0.725

## RRIRMRPPRLPRPRPRPAHLPRP
  shrunken log2 fold change: 0.0862

## RRIRMRPPRLPRPRPRPAHMPRP
  shrunken log2 fold change: 0.281

## RRIRMRPPRLPRPRPRPAIDPRP
  shrunken log2 fold change: 0.718

## RRIRMRPPRLPRPRPRPAILPRP
  shrunken log2 fold change: 0.467

## RRIRMRPPRLPRPRPRPAIMPRP
  shrunken log2 fold change: 0.284

## RRIRMRPPRLPRPRPRPAIVPRP
  shrunken log2 fold change: -0.161

## RRIRMRPPRLPRPRPRPAIYPRP
  shrunken log2 fold change: 0.0389

## RRIRMRPPRLPRPRPRPAKNPRP
  shrunken log2 fold change: 0.816

## RRIRMRPPRLPRPRPRPAPGPRP
  shrunken log2 fold change: 2.04

## RRIRMRPPRLPRPRPRPAPIPRP
  shrunken log2 fold change: 0.618

## RRIRMRPPRLPRPRPRPARRPRP
  shrunken log2 fold change: 1.35

## RRIRMRPPRLPRPRPRPATEPRP
  shrunken log2 fold change: 0.996

## RRIRMRPPRLPRPRPRPAVGPRP
  shrunken log2 fold change: 0.5

## RRIRMRPPRLPRPRPRPAVLPRP
  shrunken log2 fold change: 0.0985

## RRIRMRPPRLPRPRPRPAVNPRP
  shrunken log2 fold change: 0.0731

## RRIRMRPPRLPRPRPRPAWDPRP
  shrunken log2 fold change: 0.869

## RRIRMRPPRLPRPRPRPCAEPRP
  shrunken log2 fold change: 2.31

## RRIRMRPPRLPRPRPRPCAYPRP
  shrunken log2 fold change: 0.227

## RRIRMRPPRLPRPRPRPCCCPRP
  shrunken log2 fold change: 0.0604

## RRIRMRPPRLPRPRPRPCCKPRP
  shrunken log2 fold change: -0.233

## RRIRMRPPRLPRPRPRPCCWPRP
  shrunken log2 fold change: 0.787

## RRIRMRPPRLPRPRPRPCFHPRP
  shrunken log2 fold change: -0.318
